Columns and labels:
[1] = tested on: SDF-1α/CXCL12 expression in human mesenchymal stem cells; assay: Induction of SDF-1α/CXCL12 gene expression in human mesenchymal stem cells by oncostatin M (qPCR); type: cell-based; conditions: increasing concentrations of OSM
Experimental: Therefore, the effect of such media on the gene expression of SDF-1α/CXCL12 in human (stromal) mesenchymal stem cells by qPCR was evaluated (primers forward ATGCCCATGCCGATTCTT [SEQ ID NO. 5]; reverse […] [SEQ ID NO. 6]; reference sequence NCBI NM_000609.6).

LKS stem cells = assay: G-CSF alone induced mobilization of LKS stem cells in diabetic mice; type: in vivo; conditions: G-CSF only
From the text: In order to obtain in vivo validation of such mechanism, inhibition of oncostatin M (OSM) has been carried out in mice induced with diabetes by injecting streptozotocin as mentioned above and analyzed after 4 weeks from hyperglycemia development, by intraperitoneal injection of a polyclonal neutralizing antibody (AF-495-NA, R&D Systems) specific for murine oncostatin M (OSM), before beginning a marrow stimulation cycle by a subcutaneous injection of G-CSF ([…] for 4 consecutive days).

Molecule | expression of SDF-1α/CXCL12 [1] | mobilization of LKS stem cells (LKS stem cells)
oncostatin M (OSM): 28-kDa glycoprotein of cytokine family, macrophage derived factor (protein) AAIGSCSKEYRVLLGQLQKQTDLMQDTSRLLDPYIRIQGLDVPKLREHCRERPGAFPSEETLRGLGRRGFLQTLNATLGCVLHRLADLEQRLPKAQDLERSGLNIEDLEKLQMARPNILGLRNNIYCMAQLLDNSDTAEPTKAGRGASQPPTPTPASDAFQRKLEGCRFLHGYHRFMHSVGRVFSKWGESPNRSRR | progressively increase the expression | –
G-CSF: granulocyte colony stimulating factor, growth factor used for stem cell mobilization (protein, UniProt P09919 31-207, looked up) Granulocyte …: TPLGPASSLPQSFLLKCLEQVRKIQGDGAALQEKLVSECATYKLCHPEELVLLGHSLGIPWAPLSSCPSQALQLAGCLSQLHSGLFLYQGLLQALEGISPELGPTLDTLQLDVADFATTIWQQMEELGMAPALQPTQGAMPAFASAFQRRAGGVLVASHLQSFLEVSYRVLRHLAQP | – | not able to induce mobilization

Reference: patent publication US20200291109A1, “Composition to induce bone marrow stem cell mobilization” (Universitá degli Studi di Padova, priority 2014, published 2020)
